# Data reported in IntAct's records for PubMed 15328353.
# B1: Plasma serine protease inhibitor (Mus musculus), P70458 (parent)
# chain: MRFFPILCLVLFISHGVASRRHSHSKKKKAKESSVGAVGPPSSKDFAFRLYRALVSESPGQNVFFSPLSVSMSLGMLSLGAGLKTKTQILDGLGLSLQQGQEDKLHKGFQQLLQRFRQPSDGLQLSLGSALFKDPAVHIRDDFLSAMKTLYMSDTFSTNFGNPEIAKKQINNYVAKQTKGKIVDFIKDLDSTHVMIVVNYIFFKAKWQTAFSETNTHKMDFHVTPKRTTQVPMMNREDGYSYYLDQNISCTVVGIPYQGNAIALFILPSEGKMKQVEDGLDERTLRNWLKMFTKRRLDLYLPKFSIEATYKLENVLPKLGIQDVFTTHADLSGITDHTNIKLSEMVHKSMMEVEESGTTAAAITGAIFTFRSARPSSLKIEFTRPFLLTLMEDSHILFVGKVTRP
# partner: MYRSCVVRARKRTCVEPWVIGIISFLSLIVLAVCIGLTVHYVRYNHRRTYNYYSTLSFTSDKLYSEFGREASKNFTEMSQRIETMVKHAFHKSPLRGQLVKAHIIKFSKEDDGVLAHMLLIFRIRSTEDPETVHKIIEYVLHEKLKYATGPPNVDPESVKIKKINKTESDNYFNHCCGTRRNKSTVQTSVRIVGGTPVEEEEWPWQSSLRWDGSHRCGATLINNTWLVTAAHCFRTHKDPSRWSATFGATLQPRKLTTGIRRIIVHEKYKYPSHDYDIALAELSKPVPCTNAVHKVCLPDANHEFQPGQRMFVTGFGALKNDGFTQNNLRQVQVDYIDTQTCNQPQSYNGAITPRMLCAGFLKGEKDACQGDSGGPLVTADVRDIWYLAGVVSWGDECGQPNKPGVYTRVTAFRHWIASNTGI
# B2: Plasminogen activator inhibitor 1 (Mus musculus), P22777 (parent)
# chain: MQMSSALACLILGLVLVSGKGFTLPLRESHTAHQATDFGVKVFQQVVQASKDRNVVFSPYGVSSVLAMLQMTTAGKTRRQIQDAMGFKVNEKGTAHALRQLSKELMGPWNKNEISTADAIFVQRDLELVQGFMPHFFKLFQTMVKQVDFSEVERARFIINDWVERHTKGMINDLLAKGAVDELTRLVLVNALYFSGQWKTPFLEASTHQRLFHKSDGSTVSVPMMAQSNKFNYTEFTTPDGLEYDVVELPYQRDTLSMFIAAPFEKDVHLSALTNILDAELIRQWKGNMTRLPRLLILPKFSLETEVDLRGPLEKLGMPDMFSATLADFTSLSDQEQLSVAQALQKVRIEVNESGTVASSSTAFVISARMAPTEMVIDRSFLFVVRHNPTETILFMGQVMEP
# partner: B1 partner
# Variants of: B1
# Settings: with tm11e_mouse Tmprss11e
row,effect of a mutation on the interaction,Variant
1,decreasing interaction,R374A

# Variants of: B2
# Settings: with tm11e_mouse Tmprss11e
row,effect of a mutation on the interaction,Variant
1,decreasing interaction,R369A
2,decreasing interaction,T356R;A358R
